US20260209362A1 (VIB VZW, published 2026)

How the values were obtained:
[1] = target: T1, biotinylated recombinant mouse IL-12Rβ2 (mouse, UniProt P97378 24-637, random biotinylated); assay: ELISA, periplasmic extract on biotinylated mIL-12Rβ2, signal over control wells
T1 construct: Recombinant protein produced in-house, biotinylated; also called mIL-12RB2; mouse IL-12RB2
T1 sequence: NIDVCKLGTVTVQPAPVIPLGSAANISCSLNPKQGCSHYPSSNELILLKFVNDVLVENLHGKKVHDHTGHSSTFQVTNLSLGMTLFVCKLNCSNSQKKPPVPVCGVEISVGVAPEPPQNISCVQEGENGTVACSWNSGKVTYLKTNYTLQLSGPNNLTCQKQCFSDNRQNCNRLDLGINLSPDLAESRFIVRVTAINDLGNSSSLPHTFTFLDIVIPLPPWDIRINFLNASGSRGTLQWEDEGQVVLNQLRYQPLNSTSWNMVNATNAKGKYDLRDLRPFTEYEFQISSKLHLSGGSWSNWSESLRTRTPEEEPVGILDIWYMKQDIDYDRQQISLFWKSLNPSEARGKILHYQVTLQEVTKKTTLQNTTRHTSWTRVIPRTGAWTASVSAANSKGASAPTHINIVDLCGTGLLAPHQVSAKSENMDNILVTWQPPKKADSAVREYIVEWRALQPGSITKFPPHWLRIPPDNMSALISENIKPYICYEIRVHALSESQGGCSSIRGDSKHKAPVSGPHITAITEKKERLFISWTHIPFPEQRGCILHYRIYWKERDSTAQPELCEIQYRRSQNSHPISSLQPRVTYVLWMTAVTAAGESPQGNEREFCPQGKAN

[2] = target: T2, biotinylated recombinant human IL-12Rβ2 (human, UniProt Q99665 24-622, random biotinylated); assay: ELISA, periplasmic extract on biotinylated hIL-12Rβ2, signal over control wells
T2 construct: Recombinant protein produced in-house, biotinylated; also called hIL-12RB2; human IL-12RB2
T2 sequence: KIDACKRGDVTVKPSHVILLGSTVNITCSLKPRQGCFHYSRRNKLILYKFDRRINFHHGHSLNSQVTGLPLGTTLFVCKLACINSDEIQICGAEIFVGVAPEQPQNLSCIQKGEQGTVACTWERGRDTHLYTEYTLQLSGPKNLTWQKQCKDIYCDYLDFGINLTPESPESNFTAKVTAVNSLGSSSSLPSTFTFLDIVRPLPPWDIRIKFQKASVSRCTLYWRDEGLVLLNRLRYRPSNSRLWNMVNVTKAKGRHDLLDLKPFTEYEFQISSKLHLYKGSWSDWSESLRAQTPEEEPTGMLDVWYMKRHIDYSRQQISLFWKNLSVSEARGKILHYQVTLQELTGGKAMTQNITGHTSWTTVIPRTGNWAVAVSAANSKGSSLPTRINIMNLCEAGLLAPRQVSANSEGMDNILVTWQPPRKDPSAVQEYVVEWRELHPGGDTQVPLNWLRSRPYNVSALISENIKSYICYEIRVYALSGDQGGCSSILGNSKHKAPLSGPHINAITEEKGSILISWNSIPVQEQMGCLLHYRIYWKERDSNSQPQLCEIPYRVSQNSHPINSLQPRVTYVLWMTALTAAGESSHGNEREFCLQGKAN

human IL-12Rβ2 = target: T3, human IL-12Rβ2 (human, UniProt Q99665 24-862); assay: flow cytometry, P.E. on transfected HEK293T cells
T3 construct: Expressed on HEK293T cells transiently transfected with a pcDNA3 plasmid (Genscript clone OHu21785); also called hIL-12RB2; IL-12 receptor β2 subunit
T3 sequence: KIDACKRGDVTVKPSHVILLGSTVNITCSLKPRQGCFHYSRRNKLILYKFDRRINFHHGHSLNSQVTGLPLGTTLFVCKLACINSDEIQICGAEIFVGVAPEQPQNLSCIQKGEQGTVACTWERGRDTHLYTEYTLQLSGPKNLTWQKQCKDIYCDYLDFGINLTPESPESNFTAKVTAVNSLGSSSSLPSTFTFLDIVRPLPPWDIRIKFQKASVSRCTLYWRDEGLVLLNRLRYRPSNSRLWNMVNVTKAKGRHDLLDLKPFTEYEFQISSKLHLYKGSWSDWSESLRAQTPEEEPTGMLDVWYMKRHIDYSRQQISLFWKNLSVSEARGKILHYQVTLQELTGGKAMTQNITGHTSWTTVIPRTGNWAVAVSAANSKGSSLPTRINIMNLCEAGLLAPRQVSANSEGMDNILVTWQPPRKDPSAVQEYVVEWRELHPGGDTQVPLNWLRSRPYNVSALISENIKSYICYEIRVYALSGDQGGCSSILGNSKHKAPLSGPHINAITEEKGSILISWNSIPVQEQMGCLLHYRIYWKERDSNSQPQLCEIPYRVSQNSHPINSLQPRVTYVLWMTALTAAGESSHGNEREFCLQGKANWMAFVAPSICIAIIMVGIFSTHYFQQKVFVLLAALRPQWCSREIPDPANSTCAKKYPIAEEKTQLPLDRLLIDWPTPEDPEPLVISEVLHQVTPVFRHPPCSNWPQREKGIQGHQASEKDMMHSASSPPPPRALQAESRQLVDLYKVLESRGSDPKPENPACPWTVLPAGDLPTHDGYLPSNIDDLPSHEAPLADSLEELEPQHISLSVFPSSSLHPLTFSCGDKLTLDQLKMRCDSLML

B1: anti-IL-12Rβ2 VHH clone 20527 (VHH, not shown: small tags and cut ends)
VHH: QVQLQESGGGLVQAGGSLRLSCAASGFTLSTYAMSWVRQAPGKGLEWVSSISSSGASTNYADSVKGRFTISRDNAKNTLYLQMNSLKPEDTAVYYCAKASQNYSPPGQGTQVTVSS
notes: tested as periplasmic extract; also called 3CRMS90
ELISA binding mIL-12RB2/control [1]: 9.93 ratio | ELISA binding hIL-12RB2/control [2]: 0.834 ratio

B2: anti-IL-12Rβ2 VHH clone 20447 (VHH, not shown: small tags and cut ends)
VHH: QVQLQESGGGLVQPGGSLRLSCAASGFTFRSYAMSWVRQAPGKGLEWVSSISSSGTDTNYADSVKGRLTISRDNVKNTLYLQMNSLKPEDTAVYYCAKASQNYSPPGQGTQVTVSS
notes: tested as periplasmic extract; also called 2CRM39
ELISA binding mIL-12RB2/control [1]: 11.8 ratio | ELISA binding hIL-12RB2/control [2]: 1.4 ratio

B3: anti-IL-12Rβ2 VHH clone 20451 (VHH, not shown: small tags and cut ends)
VHH: QVQLQESGGGLVQPGGSLRLSCAASGFTFSAYAMSWVRQAPGKGLEWVSSISSTGTNPNYADSVKGRFTISRDNAKNTLYLQMNSLKPEDTAVYYCAEAYRNYSPPGQGTQVTVSS
notes: tested as periplasmic extract; also called 2CRM83
ELISA binding mIL-12RB2/control [1]: 33.5 ratio | ELISA binding hIL-12RB2/control [2]: 1.26 ratio

B4: anti-IL-12Rβ2 VHH clone 20452 (VHH, not shown: small tags and cut ends)
VHH: QVQLQESGGGLVQAGGSLRLSCAASGFAFSSVAMSWVRQAPGKGLEWVSSISSGGHDTNYANSVKGRFTISRDNAKNTLYLQMNSLKPEDTAVYYCAKSSRNYSPPGQGTQVTVSS
notes: tested as periplasmic extract; also called 2CRM84
ELISA binding mIL-12RB2/control [1]: 7.52 ratio | ELISA binding hIL-12RB2/control [2]: 0.989 ratio

B5: anti-IL-12Rβ2 VHH clone 20510 (VHH, not shown: small tags and cut ends)
VHH: QVQLQESGGGLVQAGGSLRLSCAASGRTFSSYGMGWFRQAPGKEREFVAAISRGARITDYADSVKGRFTISRDNAKNTAYLQMNSLNPEDTAVYFCAAAYTYSGSHYVTARSSDYHSWGQGTQVTVSS
notes: tested as periplasmic extract; also called 3CAM31
ELISA binding mIL-12RB2/control [1]: 16.4 ratio | ELISA binding hIL-12RB2/control [2]: 1.2 ratio

B6: anti-IL-12Rβ2 VHH clone 20469 (VHH, not shown: small tags and cut ends)
VHH: QVQLQESGGGLVQPGGSLRLSCAASGRTFSSYGMGWFRQAPGKKREFVAAISRDARITDYADSVKGRFTISRDNAKNTAYLEMNSLNPEDTAVYFCAAAYTYSGSHYVTARSSDYHSWGQGTQVTVSS
notes: tested as periplasmic extract; also called 2CAM8
ELISA binding mIL-12RB2/control [1]: 22 ratio | ELISA binding hIL-12RB2/control [2]: 1.05 ratio

B7: anti-IL-12Rβ2 VHH clone 20480 (VHH, not shown: small tags and cut ends)
VHH: QVQLQESGGGLVQAGGSLRLSCAASGRTFSSYGMGWFRQAPGKEREFVAAISRDARITDYADSVKGRFTISRDNAKNTAYLEMNSLNPEDTAVYFCAAAYTYSGSHYVTARSSDYHSWGQGTQVTVSS
notes: tested as periplasmic extract; also called 2CAM36
ELISA binding mIL-12RB2/control [1]: 18.1 ratio | ELISA binding hIL-12RB2/control [2]: 0.979 ratio

B8: anti-IL-12Rβ2 VHH clone 20481 (VHH, not shown: small tags and cut ends)
VHH: QVQLQESGGGLVQAGGSLRLSCAASGRTFSSYGMGWFRQAPGKERDFVAAISRDARITDYADSVKGRFTISRDNVKNTVYLQMNSLNPEDTAVYFCAAAYTYSGSHYVTARSSDYHSWGQGTQVTVSS
notes: tested as periplasmic extract; also called 2CAM38
ELISA binding mIL-12RB2/control [1]: 15.8 ratio | ELISA binding hIL-12RB2/control [2]: 0.983 ratio

B9: anti-IL-12Rβ2 VHH clone 20488 (VHH, not shown: small tags and cut ends)
VHH: QVQLQESGGGLMQAGDSLRLSCAASGRTFSSYGMGWFRQAPGKEREFVAAISRGARITDYADSVKGRFTISRDNAKNTAYLQMNSLNPEDTAVYFCAAAYTYSGSHYVTARSSDYHSWGQGTQVTVSS
notes: tested as periplasmic extract; also called 2CAM48
ELISA binding mIL-12RB2/control [1]: 12.9 ratio | ELISA binding hIL-12RB2/control [2]: 0.973 ratio

B10: anti-IL-12Rβ2 VHH clone 20491 (VHH, not shown: small tags and cut ends)
VHH: QVQLQESGGGLVQAGGSLRLSCAASGRTFSSYGMGWFRQAPGKERDFVAAISRDARYTDYADSVKGRFTISKDNAKNTAYLQMNSLNPEDTAVYFCAAAYTYSGSHYVTARSGDYNYWGQGTQVTVSS
notes: tested as periplasmic extract; also called 2CAM57
ELISA binding mIL-12RB2/control [1]: 14.4 ratio | ELISA binding hIL-12RB2/control [2]: 1 ratio

B11: anti-IL-12Rβ2 VHH clone 20495 (VHH, not shown: small tags and cut ends)
VHH: QVQLQESGGGLVQAGGSLRLSCAASGRTFSMHGMGWFRQAPGKEREFVAAISRDARITDYADSVKGRFTISRDNAKNTAYLQMNSLNPEDTAVYFCAAAYTYSGSHYVTARSSDYNYWGQGTQVTVSS
notes: tested as periplasmic extract; also called 2CAM69
ELISA binding mIL-12RB2/control [1]: 15.8 ratio | ELISA binding hIL-12RB2/control [2]: 0.924 ratio

B12: anti-IL-12Rβ2 VHH clone 2CRH62 (VHH, not shown: small tags and cut ends)
VHH: QVQLQESGGGLVQPGGSLRLSCVESGRTFTVYDMGWFRQAPGKEREIVAAISADGATSIYQDSVKGRFTISRDNDAKNTVYLQMNSLKPEDTAVYYCAAGRSLIYNLYRANNTDYWGQGTQVTVSS
notes: periplasmic extract
% cells bound (human IL-12Rβ2): 41.9% | dMFI (human IL-12Rβ2): 891

B13: anti-IL-12Rβ2 VHH clone 2CRH76 (VHH, not shown: small tags and cut ends)
VHH: QVQLQESGGGLVQTGGSLRLSCVASGRTFNWSAMGWFRQPPGKEREVVATISGGGTSAYYADSVKGRFTISRDGAKNTLYLQMNSLKPEDTAVYYCAADRVDYRMTLTQNGNHYWGQGTQVTVSS
notes: periplasmic extract
% cells bound (human IL-12Rβ2): 36.6% | dMFI (human IL-12Rβ2): 668

B14: anti-IL-12Rβ2 VHH clone 2CRH82 (VHH, not shown: small tags and cut ends)
VHH: QVQLQESGGGLVQAGGSLRLSCAASARTESMYAMAWFRQAPGKEREIVAGIIQSGGTTYISDYMKGRFSIDRGNAENTVYLQMDSLKPEDTAVYSCAAKVSSGTPSDIQISQSRWYDHWGQGTQVTVSS
notes: periplasmic extract
% cells bound (human IL-12Rβ2): 40.1% | dMFI (human IL-12Rβ2): 844

B15: anti-IL-12Rβ2 VHH clone 3CRH73 (VHH, not shown: small tags and cut ends)
VHH: QVQLQESGGGLVRAGGSLRLSCAASGHTFSNYVMGWFRQAPGKEREFVAAISWGGSNTYYADSVKGRFTISRDNAKNTVYLQMNSLKVEDTAVYYCAADRRFEGWNYYSMDYWGKGTQVTVSS
notes: periplasmic extract
% cells bound (human IL-12Rβ2): 41.2% | dMFI (human IL-12Rβ2): 918

B16: anti-IL-12Rβ2 VHH clone 3CRH93 (VHH, not shown: small tags and cut ends)
VHH: QVQLQESGGGLVQAGGSLRLSCAASGRTVDSYAMGWFRQTPGKEREFVAASWGGGSTYYADSVKGRFTISRDNVKNTMYLQMDSLKPEDTAVYYCAAGPTYYSGPINDNWEGRYDSWGQGTQVTVSS
notes: periplasmic extract
% cells bound (human IL-12Rβ2): 31.5% | dMFI (human IL-12Rβ2): 580

B17: anti-IL-12Rβ2 VHH clone 3CAHS153 (VHH, not shown: small tags and cut ends)
VHH: QVQLQESGGGLVQAGGSLRLSCAASGRTFSSYAMGWFRQVPGKERDFVAAVSWGGLSTYYADSVEGRFTISRDNAKNTVFLQMNSLKPEDTAVYYCAADRAYEGLGYGEYEYWGQGTQVTVSS
notes: periplasmic extract
% cells bound (human IL-12Rβ2): 36.8% | dMFI (human IL-12Rβ2): 789

B18: anti-IL-12Rβ2 VHH clone 3CAH34 (VHH, not shown: small tags and cut ends)
VHH: QVQLQESGGGSVQPGGSLRLSCGASGFTFSSFGMHWFRQAPGKGQEWAATISSSGGTTYYSDSVKGRFTISRDNAKNTLYLQMNSLKPEDTALYYCARDVTGAVRGQGTQVTVSS
notes: periplasmic extract; also called 20358
% cells bound (human IL-12Rβ2): 34.6% | dMFI (human IL-12Rβ2): 620

B19: anti-IL-12Rβ2 VHH clone 3CAHS172 (VHH, not shown: small tags and cut ends)
VHH: QVQLQESGGGSVQAGGSLRLSCGASGFTFSSFGMHWFRQAPGKGQEWVATISSSGGTTYYSDSVKGRFTISRDNAKNTLYLQMNSLKPEDTALYYCARDVTGAVRGQGTQVTVSS
notes: periplasmic extract
% cells bound (human IL-12Rβ2): 43% | dMFI (human IL-12Rβ2): 1020
